{
  "source": "paper PMC11882521",
  "about": "“Cofactor engineering for improved production of 2,4-dihydroxybutyric acid via the synthetic homoserine pathway” (Frontiers in Bioengineering and Biotechnology, 2025)",
  "key": {"[1]": {"biological_target": "T1, Ec.Mdh^5Q D34G (OHB reductase, engineered E. coli malate dehydrogenase) (Escherichia coli, UniProt P61889, I12V/D34G/R81A/M85Q/D86S/G179D)", "T1 construct": "N-terminally 6x-His-tagged", "T1 sequence (P61889 whole entry I12V/D34G/R81A/M85Q/D86S/G179D)": "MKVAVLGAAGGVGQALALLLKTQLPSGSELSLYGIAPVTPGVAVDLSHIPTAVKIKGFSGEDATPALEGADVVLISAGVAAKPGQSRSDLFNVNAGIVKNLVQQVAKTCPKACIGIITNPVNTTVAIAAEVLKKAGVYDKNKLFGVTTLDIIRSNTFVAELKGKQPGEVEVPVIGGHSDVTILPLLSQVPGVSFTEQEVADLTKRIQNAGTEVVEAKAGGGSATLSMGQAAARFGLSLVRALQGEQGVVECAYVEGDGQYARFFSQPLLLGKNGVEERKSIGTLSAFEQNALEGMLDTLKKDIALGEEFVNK", "experiment": "specific activity of purified enzyme at […] OHB and […] NADH", "format": "biochemical"}, "[2]": {"biological_target": "T1, Ec.Mdh^5Q D34G (OHB reductase, engineered E. coli malate dehydrogenase)", "experiment": "specific activity of purified enzyme at […] OHB and […] NADPH", "format": "biochemical"}, "[3]": {"test_system": "T2, NC(=O)C1=CN([C@@H]2O[C@H](COP(=O)(O)OP(=O)(O)OC[C@H]3O[C@@H](n4cnc5c(N)ncnc54)[C@H](O)[C@@H]3O)[C@@H](O)[C@H]2O)C=CC1", "T2 construct": "N-terminally 6x-His-tagged", "experiment": "purified protein", "format": "biochemical, Escherichia coli", "conditions": "co-enzyme binding site, varied: cofactor"}, "[4]": {"test_system": "T3, NC(=O)C1=CN([C@@H]2O[C@H](COP(=O)(O)OP(=O)(O)OC[C@H]3O[C@@H](n4cnc5c(N)ncnc54)[C@H](OP(=O)(O)O)[C@@H]3O)[C@@H](O)[C@H]2O)C=CC1", "T3 construct": "N-terminally 6x-His-tagged", "experiment": "purified protein", "format": "biochemical, Escherichia coli", "conditions": "varied: cofactor"}, "O=C(O)C(=O)CCO": {"test_system": "T4, O=C(O)C(=O)CCO", "T4 construct": "N-terminally 6x-His-tagged", "experiment": "purified protein", "format": "biochemical, Escherichia coli"}, "[5]": {"conditions": "Asp34 confers cofactor specificity"}, "[6]": {"conditions": "co-enzyme binding site, Asp34 disfavours the […]'-phosphate group"}, "[7]": {"conditions": "[…]'-phosphate group near positions […] and […] (selectivity control loop, cofactor binding motif of the Rossmann fold)"}, "[8]": {"conditions": "NADPH uncompetitive substrate inhibition (Ki =[…])"}},
  "data": [
    {"compound": "NC(=O)C1=CN([C@@H]2O[C@H](COP(=O)(O)OP(=O)(O)OC[C@H]3O[C@@H](n4cnc5c(N)ncnc54)[C@H](O)[C@@H]3O)[C@@H](O)[C@H]2O)C=CC1", "note": "[NADH]", "values": [
      {"measurement": "specific activity of purified enzyme at 2 mM OHB and 0.25 mM NADH", "setting": "[1]", "value": "23 ± 2 U mg^−1 (specific activity)"}
    ]},
    {"compound": "NC(=O)C1=CN([C@@H]2O[C@H](COP(=O)(O)OP(=O)(O)OC[C@H]3O[C@@H](n4cnc5c(N)ncnc54)[C@H](OP(=O)(O)O)[C@@H]3O)[C@@H](O)[C@H]2O)C=CC1", "note": "[NADPH]", "values": [
      {"measurement": "specific activity of purified enzyme at 2 mM OHB and 0.25 mM NADPH", "setting": "[2]", "value": "35 ± 3 U mg^−1 (specific activity)"}
    ]},
    {"compound": "Ec.Mdh^5Q (OHB reductase, engineered E. coli malate dehydrogenase) (Escherichia coli K-12; D86S/G179D/I12V/M85Q/R81A)", "values": [
      {"measurement": "Km", "setting": "[3]; [5]", "value": 40, "unit": "µM"},
      {"measurement": "Vmax", "setting": "[3]; [5]", "value": 67.7, "unit": "µmol/min/mg"},
      {"measurement": "kcat", "setting": "[3]; [5]", "value": "36.5 ± 1.68", "unit": "s⁻¹"},
      {"measurement": "kcat/Km", "setting": "[3]; [5]", "value": "1.03e+06 ± 67500", "unit": "M⁻¹ s⁻¹"},
      {"measurement": "Km", "setting": "[4]; [6]", "value": 320, "unit": "µM"},
      {"measurement": "Vmax", "setting": "[4]; [6]", "value": 5.56, "unit": "µmol/min/mg"},
      {"measurement": "kcat", "setting": "[4]; [6]", "value": "2.99 ± 0.35", "unit": "s⁻¹"},
      {"measurement": "kcat/Km", "setting": "[4]; [6]", "value": "9500 ± 50", "unit": "M⁻¹ s⁻¹"},
      {"measurement": "Km", "setting": "O=C(O)C(=O)CCO; NADH", "value": 1840, "unit": "µM"},
      {"measurement": "Vmax", "setting": "O=C(O)C(=O)CCO; NADH", "value": 138, "unit": "µmol/min/mg"},
      {"measurement": "kcat", "setting": "O=C(O)C(=O)CCO; NADH", "value": "74.9 ± 5.63", "unit": "s⁻¹"},
      {"measurement": "kcat/Km", "setting": "O=C(O)C(=O)CCO; NADH", "value": "44900 ± 15200", "unit": "M⁻¹ s⁻¹"}
    ]},
    {"compound": "Ec.Mdh^7Q (OHB reductase, engineered E. coli malate dehydrogenase) (Escherichia coli K-12; D34G/D86S/G179D/I12V/I35R/M85Q/R81A)", "values": [
      {"measurement": "Km", "setting": "[3]", "value": 270, "unit": "µM"},
      {"measurement": "Vmax", "setting": "[3]", "value": 20, "unit": "µmol/min/mg"},
      {"measurement": "kcat", "setting": "[3]", "value": "10.8 ± 1.07", "unit": "s⁻¹"},
      {"measurement": "kcat/Km", "setting": "[3]", "value": "40400 ± 1710", "unit": "M⁻¹ s⁻¹"},
      {"measurement": "Km", "setting": "[4]; [7]", "value": 100, "unit": "µM"},
      {"measurement": "Vmax", "setting": "[4]; [7]", "value": 119, "unit": "µmol/min/mg"},
      {"measurement": "kcat", "setting": "[4]; [7]", "value": "64 ± 9.97", "unit": "s⁻¹"},
      {"measurement": "kcat/Km", "setting": "[4]; [7]", "value": "645000 ± 76200", "unit": "M⁻¹ s⁻¹"},
      {"measurement": "Km", "setting": "O=C(O)C(=O)CCO; [8]", "value": 1080, "unit": "µM"},
      {"measurement": "Vmax", "setting": "O=C(O)C(=O)CCO; [8]", "value": 155, "unit": "µmol/min/mg"},
      {"measurement": "kcat", "setting": "O=C(O)C(=O)CCO; [8]", "value": "83.4 ± 3.4", "unit": "s⁻¹"},
      {"measurement": "kcat/Km", "setting": "O=C(O)C(=O)CCO; [8]", "value": "80300 ± 17300", "unit": "M⁻¹ s⁻¹"}
    ]}
  ]
}
